Experimental data from patent publication US20040146512A1 (RINAT NEUROSCIENCE, published 2004).

T1: Aβ1-16 peptide
T1 construct: Soluble fragment from American Peptide Company
T1 peptide: DAEFRHDSGYEVHHQK

B1: monoclonal antibody 2286 (produced by hybridoma 8A1.2A1) (antibody, V domains shown)
VH: EVKLLESGGGLVQPGGSLKLSCAASGFDFSRYWMNWVRQAPGKGLEWIGEINPDSSTINYTPSLKDKFIISRDNAKNTLYLQMSKVRSEDTALYYCARQMGYWGQGTTLTVSS
VL: DIQMTQTTSSLSASLGDRVTISCSASQGISNYLNWFQQKPDGTVKLLIYYTSSLHSGVPSRFSGSGSGTDYSLTISNLEPEDIATYYCQQYRKLPYTFGGGTKLEIKR
B2: Mouse 2286 Fab (Fab, V domains shown)
VH: B1 VH
VL: B1 VL
B3: monoclonal antibody 2324 (produced by hybridoma 10B10.2E6) (antibody, V domains shown)
VH: VTLKESGPGILKPSQTLSLTCSFSGFSLSTSGMGVGWIRQSSGKGLEWLAHIWWDDDKYYNPSLKSQLTISKDTSRNQVFLKITSVDTADTATYYCARRGVRHRDYFDYWGQGTTLTVSS
VL: DVLMTQTPLSLPVSLGDQASISCRSSQSIVHSNGNTYLEWYLQKPGQSPKLLIYKVSNRFSGVPDRFSGSGSGTDFTLKISRVEAEDLGVYYCFQGSRVPLTFGAGTKLELKR

Tests used:
Aβ1-40 peptide = target: T2, Aβ1-40 peptide; assay: Affinity Kd of Table 2; method and format not stated in Example 1
T2 construct: Synthetic peptide, also the immunogen; also called Aβ peptide; β-amyloid peptide 1-40

Aβ1-42 peptide [1] = target: T3, Aβ1-42 peptide; assay: ELISA: peptide immobilized on plate + Ab + GAMIgG(Fc)HRP, absorbance 490 nm; antibody concentration not given
T3 construct: also called 1-42 (WT); β-amyloid peptide 1-42

Aβ1-43 peptide [2] = target: T4, Aβ1-43 peptide; assay: as above
T4 construct: also called 1-43 (WT); β-amyloid peptide 1-43

[3] = target: T5, Aβ1-41 expressed as GST fusion protein (Homo sapiens (Human), UniProt P05067 672-712); assay: ELISA: GST fusion protein immobilized 0.25 µg per well, biotin goat anti-mouse (H+L) + streptavidin-HRP, OD450
T5 construct: also called 1-41 (WT); not shown: Glutathione-S-Transferase (GST) fusion partner, Amersham Pharmacia Biotech system

Aβ1-16 peptide [4] = target: T1, Aβ1-16 peptide; assay: SPR (Biacore 3000) competition: antibody over biotin-Aβ1-40 on a streptavidin chip, with soluble peptide; % of maximal binding
Aβ1-28 peptide [5] = target: T6, Aβ1-28 peptide; assay: as above
T6 construct: Soluble fragment from American Peptide Company

Aβ1-38 peptide [6] = target: T7, Aβ1-38 peptide; assay: as above
T7 construct: Soluble fragment from American Peptide Company

[7] = target: T8, Aβ1-40 variant V36A expressed as GST fusion protein (Homo sapiens (Human), UniProt P05067 672-711, Expressed as a GST fusion protein; the GST part is left out.); assay: ELISA: GST fusion protein immobilized 0.25 µg per well, antibody at 2 nM, biotin goat anti-mouse (H+L) + streptavidin-HRP, OD450
T8 construct: also called V36A (1-40); not shown: GST fusion partner and its linker

[8] = target: T9, Aβ1-40 variant V39A expressed as GST fusion protein (Homo sapiens (Human), UniProt P05067 672-711, Expressed as a GST fusion protein; the GST part is left out.); assay: as above
T9 construct: also called V39A (1-40); not shown: GST fusion partner and its linker

[9] = target: T10, Aβ1-40 variant V40A expressed as GST fusion protein (Homo sapiens (Human), UniProt P05067 672-710, Expressed as a GST fusion protein; the GST part is left out.); assay: as above
T10 construct: also called V40A (1-40); not shown: GST fusion partner and its linker

[10] = target: T11, Aβ1-40 polypeptide coupled to biotin, immobilized on a streptavidin-coated chip (coupled to biotin (position not given)); assay: SPR (BIAcore 3000), Fab over biotin-Aβ1-40 on SA chip, 'Steady-State' method
T11 construct: From Global Peptide Services; Used in the SPR assays; also called biotinylated Aβ peptide 1-40; immobilized Aβ1-40

Aβ1-42 peptide [11] = target: T3, Aβ1-42 peptide; assay: ELISA: peptide immobilized on plate + Ab + GAMIgG(Fc)HRP, absorbance 490 nm
Aβ1-43 peptide [12] = target: T4, Aβ1-43 peptide; assay: as above
[13] = target: T12, beta amyloid precursor protein (βAPP) (Homo sapiens, UniProt P05067 18-770); assay: ELISA: β-APP (gD) immobilized on plate + Ab + GAMIgG(Fc)HRP, absorbance 490 nm; antibody concentration not given
T12 construct: also called amyloid beta (A4) precursor protein

[14] = target: T13, Wild-type Aβ1-40 expressed as GST fusion protein (Homo sapiens (Human), UniProt P05067 672-711); assay: ELISA: GST fusion protein immobilized 0.25 µg per well, antibody at 2 nM, biotin goat anti-mouse (H+L) + streptavidin-HRP, OD450
T13 construct: Expressed in E. coli; also called Aβ1-40 (WT) GST fusion; WT Aβ1-40; not shown: Glutathione-S-Transferase (GST) fusion partner, Amersham Pharmacia Biotech system

[15] = target: T5, Aβ1-41 expressed as GST fusion protein; assay: as above
Aβ1-16 peptide [16] = target: T1, Aβ1-16 peptide; assay: SPR (Biacore 3000) competition: antibody 100 nM over biotin-Aβ1-40 on a streptavidin chip, with soluble peptide at 1000 nM; % of maximal binding
Aβ1-28 peptide [17] = target: T6, Aβ1-28 peptide; assay: as above
Aβ1-38 peptide [18] = target: T7, Aβ1-38 peptide; assay: as above

T9 sequence (P05067 672-711 V710A limits assumed): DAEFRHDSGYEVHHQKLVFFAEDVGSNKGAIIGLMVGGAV
T8 sequence (P05067 672-711 V707A limits assumed): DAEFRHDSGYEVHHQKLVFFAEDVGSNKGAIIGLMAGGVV
T5 sequence (P05067 672-712): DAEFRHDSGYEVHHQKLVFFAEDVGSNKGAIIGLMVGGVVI
T10 sequence (P05067 672-711 V711A limits assumed): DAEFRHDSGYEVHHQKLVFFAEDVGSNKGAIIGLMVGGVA
T12 sequence (P05067 other isoform, or with tags, fused parts or gaps limits assumed): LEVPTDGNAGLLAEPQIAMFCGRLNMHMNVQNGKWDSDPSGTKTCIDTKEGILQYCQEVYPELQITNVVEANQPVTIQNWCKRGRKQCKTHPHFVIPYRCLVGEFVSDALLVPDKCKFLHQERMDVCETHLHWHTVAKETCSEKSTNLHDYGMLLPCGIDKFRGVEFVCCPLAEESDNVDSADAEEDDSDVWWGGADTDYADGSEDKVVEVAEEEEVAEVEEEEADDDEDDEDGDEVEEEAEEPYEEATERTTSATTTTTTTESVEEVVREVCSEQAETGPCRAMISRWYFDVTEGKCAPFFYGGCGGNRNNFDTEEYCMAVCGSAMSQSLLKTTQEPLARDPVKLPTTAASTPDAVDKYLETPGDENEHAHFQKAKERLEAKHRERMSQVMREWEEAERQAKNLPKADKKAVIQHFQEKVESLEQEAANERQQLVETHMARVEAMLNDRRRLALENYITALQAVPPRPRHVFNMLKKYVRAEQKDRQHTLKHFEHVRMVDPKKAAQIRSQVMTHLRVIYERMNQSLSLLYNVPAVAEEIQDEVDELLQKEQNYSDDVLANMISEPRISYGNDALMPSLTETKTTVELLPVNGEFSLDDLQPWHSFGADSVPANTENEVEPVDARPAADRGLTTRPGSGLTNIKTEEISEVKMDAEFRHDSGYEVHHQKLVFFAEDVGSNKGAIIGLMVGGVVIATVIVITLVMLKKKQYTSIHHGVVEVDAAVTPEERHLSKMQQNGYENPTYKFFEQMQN

| Binder | Kd (Aβ1-40 peptide) [nM] | binding result (Aβ1-42 peptide [1]) | binding result (Aβ1-43 peptide [2]) | binding result [3] | binding result (Aβ1-16 peptide [4]) | binding result (Aβ1-28 peptide [5]) | binding result (Aβ1-38 peptide [6]) | binding result [7] | binding result [8] | binding result [9] | Kd [10] [nM] | binding result (Aβ1-42 peptide [11]) | binding result (Aβ1-43 peptide [12]) | binding result [13] | binding result [14] | binding result [15] | binding result (Aβ1-16 peptide [16]) | binding result (Aβ1-28 peptide [17]) | binding result (Aβ1-38 peptide [18]) |
| --- | --- | --- | --- | --- | --- | --- | --- | --- | --- | --- | --- | --- | --- | --- | --- | --- | --- | --- | --- |
| B1 | 2.7 | no binding | no binding | no binding (tested: 2 nM) | no binding | no binding | no binding | binds | binds | binds |  |  |  |  |  |  |  |  |  |
| B2 |  |  |  |  |  |  |  |  |  |  | 76 |  |  |  |  |  |  |  |  |
| B3 | 0.9 |  |  |  |  |  |  | binds | binds | binds |  | binds | binds | no binding | binds | binds | binds | binds | binds |
